Our source for the Kd and dH values is PMC7473855, “An alpaca nanobody neutralizes SARS-CoV-2 by blocking receptor interaction” (Nature Communications, 2020).

The target in assay [1] is T1, SARS-CoV-2 spike receptor-binding domain (RBD) (SARS-CoV-2, UniProt P0DTC2 319-541).
T1 construct: also called monomeric RBD
Kind of assay: ITC. The following applies: both partners purified.

The target of assay [2] is T1, SARS-CoV-2 spike receptor-binding …. Description: BLI. The conditions noted are these: both partners purified.

Several values for one entry are separate records, joined by “and”; a condition that tells them apart may be missing. Equal values may be shown once.

B1: Ty1 nanobody (VHH)
VHH: QVQLVETGGGLVQPGGSLRLSCAASGFTFSSVYMNWVRQAPGKGPEWVSRISPNSGNIGYTDSVKGRFTISRDNAKNTLYLQMNNLKPEDTALYYCAIGLNLSSSSVRGQGTQVTVSS
Usually Kd stands for the concentration at which binding is half-saturated. Low readings indicate a tighter complex, high ones a looser complex. For the molecule B1, in assay [1], binding was put at a Kd of 9 nM and the dH was around -10 kcal/mol.

B2: Ty1 nanobody, biotinylated on the C-terminus (VHH)
VHH: QVQLVETGGGLVQPGGSLRLSCAASGFTFSSVYMNWVRQAPGKGPEWVSRISPNSGNIGYTDSVKGRFTISRDNAKNTLYLQMNNLKPEDTALYYCAIGLNLSSSSVRGQGTQVTVSS
modifications: biotin on the C-terminus (GGGK-biotin joined by Sortase A)
notes: not shown: Sortase recognition site (LPETG), C-terminal, kept
Turning to B2, the Kd in assay [2] is 8 nM and 13 nM.
